Results taken from US20040052799A1, “Nucleic acid and amino acid sequences relating to Helicobacter pylori for diagnostics and therapeutics” (Astra Aktiebolag, priority 1996, published 2004).
Marks after values point to notes of the source that are not given here.

Key:
[1] = target: T1, H. pylori peptidyl-propyl cis-trans isomerase (PPIase) (Helicobacter pylori, UniProt Q9ZJH5); assay: PPIase enzymatic assay, α-chymotrypsin coupled, succinyl-Ala-Ala-Pro-Phe-p-nitroanilide; format: biochemical
T1 construct: His-Tag (N); made in house; host or cells: E. coli BL21(DE3)
T1 sequence (Q9ZJH5 whole entry, looked up): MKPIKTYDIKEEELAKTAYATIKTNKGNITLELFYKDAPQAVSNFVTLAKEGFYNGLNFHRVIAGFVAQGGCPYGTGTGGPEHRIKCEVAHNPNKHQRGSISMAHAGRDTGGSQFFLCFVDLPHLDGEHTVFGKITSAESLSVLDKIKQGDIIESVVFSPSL
Text: The assay is essentially as described by Fisher (Fischer, G., et. al. (1984) Biomed. Biochim. Acta 43:1101-1111). The assay measures the cis-trans isomerization of the Ala-Pro bond in the test peptide N-succinyl-Ala-Ala-Pro-Phe-p-nitroanilide (Sigma # S-7388, lot # 84H5805). The assay is coupled with α-chymotrypsin, where the ability of the protease to cleave the test peptide occurs only when the Ala-Pro bond is in trans. The conversion of the test peptide to the trans isomer in the assay is followed at 390 nm on a Beckman Model DU-650 spectophotometer. The data are collected every second with an average scanning of time of 0.5 second. Assays are carried out in 35 mM Hepes, pH 8.0, in a final volume of 400 ul, with 10 μM α-chymotrypsin (type 1-5 from bovine Pancreas, Sigma # C-7762, lot 23H7020) and 10 nM PPIase. To initiate the reaction, 10 μl of the substrate (2 mM N-Succinyl-Ala-Ala-Pro-Phe-p-nitroanilide in DMSO) is added to 390 μl of reaction mixture at room temperature.
The PPIase activity was assayed using the chromogenic tetrapeptide substrate succinyl-Ala-Ala-Pro-Phe-p-nitroanilide. An initial velocity of 4.9 μmole/min/mg protein was measured with the purified enzyme (FIG. 5). This corresponds to a kcat of 1.6 sec^−1 which is similar to the one obtained for the E. coli PPIase (Liu, J. and Walsh, C. T. (1990) Proc. Natl. Acad. Sci. USA 87:4028-4032) and the one from porcine kidney (Fischer, G. (1989) Nature 337:476-478).
The recombinant protein has a high catalytic efficiency of 2.06×10^9 M^−1 s^−1 when the assay is measured at 25° C. These values are one to two orders of magnitude higher than that observed for other characterized PPIases. However, in those studies, the ppiase assay was conducted at 10° C., which may account for the discrepency.

[2] = system: CD4+ or CD8+ T cells and IgA containing (IgACC) plasma cells in gastric tissue; assay: Local gastric immune response to immunization, immunostaining of gastric cryosections; format: in vivo, C57BL/6 mice
Text: Longitudinal sections of gastric tissues from the esophageal to the duodenal junction were embedded in OCT embedding compound, frozen in liquid nitrogen, and cryosections immunostained with monoclonal antibodies recognizing CD4^+ or CD8^+T cells or with antisera against mouse IgA for identification of IgA containing (IgACC) plasma cells (Pappo et al., Infect. Immun. 63:1246-1252, 1995). The degree of local gastric immune response was expressed quantitatively as the number of CD4^+, CD8^+ or IgACC cells per mm^2 of gastric region examined.
(§1) Protective activity of purified recombinant H. pylori vac36 (SEQ ID NO: 5146) antigen The ability of purified recombinant vac36 (SEQ ID NO: 5146) antigen derived from H. pylori to interfere with the establishment of an H. pylori infection was examined in mice. […]. The mice were challenged 2 weeks later on 3 consecutive days by oral administration of 10^8 H. pylori organisms. The experiment was terminated 2 weeks post-challenge, and the H. pylori infection level assessed by bacterial colony counts and by quantitative urease assays.

H. pylori = assay: Protective oral immunization and challenge with live H. pylori, quantitative urease assay and bacterial colony counts of gastric tissue; format: in vivo, C57BL/6 mice
Method: A murine model of H. pylori infection was produced by infection of C57BL/6 mice with H. pylori Sydney strain SS1 and was used to assess the efficacy of recombinant H. pylori vac36. […] Dose-response studies have shown 100% infection rates of inbred C57BL/6 and Balb/C mice at 8 weeks post-challenge with a single inoculation of […] organisms.
The presence of H. pyloriorganisms in gastric tissue was determined by culture of gastric tissue and by a quantitative urease assay. In the latter method, a longitudinal segment of antrum, representing approximately ¼ of the total antral region was placed in 1 ml of urea broth. After 4 hr, the extent of color change resulting from urea hydrolysis and increased pH was quantiated by spectrophotometric measurement of A550 (Fox et al., Immunol. 88:400-406, 1996). The assay sensitivity is ˜10^3 H. pylori organisms. A positive (H. pylori-infected) gastric tissue was defined as that sample showing 2 standard deviations above the mean A550 value derived from a group of unchallenged uninfected age-matched control mice.
as §1

H. pylori (strain AH244) = format: in vivo; settings: BALB/c mice infected with strain AH244, 100 μg antigen + 10 μg CT orally, compared to control; FIGS. 3 and 4
[3] = mean number of cells/mm^2 of gastric region ± SEM, immunized mice upon challenge with H. pylori

B1: H. pylori PPIase: recombinant PPI from H. pylori expressed in E. coli using pET-28b (protein)
chain: FIAIIEHLNDKSLSQRFMMKPIKTYDIKEEELAKTAYATIKTNKGNITLELFYKDAPQAVSNFVTLAKEGFYNGLNFHRVIAGFVAQGGCPYGTGTGGPEHRIKCEVAHNPNKHQRGSISMAHAGRDTGGSQFFLCFVDLPHLDGEHTVFGKITSAESLSVLDKIKQGDIIESVVFSPSL
modifications: left off: small tags and cut ends
notes: recombinant PPI from H. pylori expressed in E. coli using pET-28b
catalytic efficiency ([1]; assay measured at 25° C.): 2.06e+09 M⁻¹ s⁻¹ | kcat ([1]; purified recombinant enzyme): 1.6 s⁻¹ | initial velocity ([1]; purified recombinant enzyme, substrate succinyl-Ala-Ala-Pro-Phe-p-nitroanilide): 4.9 μmole/min/mg protein

B2: vac36: recombinant H. pylori outer membrane protein with terminal phenylalanine residue and C-terminal tyrosine cluster, aa SEQ ID NO: 5146, nt SEQ ID NO: 384 (protein, listed as Helicobacter pylori)
chain: MKQNLKPFKMIKENLMTQSQKVRFLAPLSLALSLSFNPVGAEEDGGFMTFGYELGQVVQQVKNPGKIKAEELAGLLNSTTTNNTNINIAGTGGNVAGTLGNLFMNQLGNLIDLYPTLKTNNLHQCGSTNSGNGATAAAATNNSPCFQGNLALYNEMVDSIKTLSQNISKNIFQGDNNTTSANLSNQLSELNTASVYLTYMNSFLNANNQAGGIFQNNTNQAYENGVTAQQIAYVLKQASITMGPSGDSGAAGAFLDAALAQHVFNSANAGNDLSAKEFTSLVQNIVNNSQNALTLANNANISNSTGYQVSYGGNIDQARSTQLLNNTTNTLAKVTALNNELKANPWLGNFAAGNSSQVNAFNGFITKIGYKQFFGENKNVGLRYYGFFSYNGAGVGNGPTYNQVNLLTYGVGTDVLYNVFSRSFGSRSLNAGFFGGIQLAGDTYISTLRNSPQLASRPTATKFQFLFDVGLRMNFGILKKDLKSHNQHSIEIGVQIPTIYNTYYKAGGAEVKYFRPYSVYWVYGYAF
modifications: misc_feature (B) LOCATION 1...527; hypothetical: YES
numbers of CD4+ T cells and of IgACC recruited in the gastric tissues ([2]; compared with unimmunized H. pylori-infected mice): Greater numbers | CD4+ antrum [2, 3]: 31 ± 8 cells/mm^2 | CD4+ cardia [2, 3]: 33 ± 9^a cells/mm^2 | CD4+ corpus [2, 3]: 54 ± 8 cells/mm^2 | CD8+ antrum [2, 3]: 1 ± 1 cells/mm^2 | CD8+ cardia [2, 3]: 3 ± 2 cells/mm^2 | CD8+ corpus [2, 3]: 0 cells/mm^2 | IgACC antrum [2, 3]: 67 ± 13 cells/mm^2 | IgACC cardia [2, 3]: 24 ± 12 cells/mm^2 | IgACC corpus [2, 3]: 79 ± 16 cells/mm^2 | level of colonization by H. pylori, as assessed by gastric urease activity and bacterial count assays (H. pylori; C57BL/6 mice immunized orally, challenged with live H. pylori): significantly lower level of colonization | H. pylori burden (H. pylori; bacterial counts in gastric tissue, mean ± SEM, oral immunization 4 times weekly with 10 μg CT, challenge with 10^8 H. pylori, 2 weeks post-challenge): 55,800 ± 12,599 colony forming units | Urease Activity (H. pylori; mean A550 ± SEM of duplicate antral samples, n = 10 mice/group, oral immunization 4 times weekly with 10 μg CT, challenge with 10^8 H. pylori, 2 weeks post-challenge): 0.199 ± 0.080 A550

B3: SEQ ID NO: 880: H. pylori antigen of the therapeutic immunization study; number does not match the antigen list of Tables 6 and 7 (protein, listed as Helicobacter pylori)
chain: YPCHKRFSLTHSQKESPQSNSPKGVKITLILVRKFKTPSINTLSNKIAIIITCCFLSESVKLLGYSGLKNFRILRMLETSSHFLKSFRLKRYIGFLLISLALLITPFVRIDGAHLFLISFEHKQLHFLGKNL
modifications: double-stranded, circular; misc_feature (B) LOCATION 1...396; hypothetical: NO; anti-sense: NO
degree of colonization of the antrum (H. pylori (strain AH244)): lower

B4: SEQ ID NO: 677: H. pylori antigen of the therapeutic immunization study; number does not match the antigen list of Tables 6 and 7 (protein, listed as Helicobacter pylori)
chain: SDCMALLEIIHYPSKILRTISKEVVSFDSKLHQQLDDMHETMIASEGIGLAAIQVGLPLRMLIINLPQEDGVQHKEDCLEIINPKWIETKGSIMYREGCLSVPGFYEEVERFEKVKIEYQNRFAEVKILEASELLAVAIQHEIDHLNGVLFVDKLSILKRKKFEKELKELQKKQKHK
modifications: double-stranded, circular; misc_feature (B) LOCATION 1...531; hypothetical: NO; anti-sense: NO
reduction and/or eradication of the H. pylori infection (therapeutic immunization effect) (H. pylori (strain AH244)): did not differ from control

B5: SEQ ID NO: 465: H. pylori antigen of the therapeutic immunization study; number does not match the antigen list of Tables 6 and 7 (protein, listed as Helicobacter pylori)
chain: MGCSFIFKKVRVYSKMLVALGLSSVLIGCAMNPSAETKKPNDAKNQQPVQTHERMTTSSEHVTPLDFNYPVHIVQAPQNHHVVGILMPRIQVSDNLKPYIDKFQDALINQIQTIFEKRGYQVLRFQDEKALNVQDKKKIFSVLDLKGWVGILEDLKMNLKDSHSPI
modifications: double-stranded, circular; misc_feature (B) LOCATION 1...498; hypothetical: NO; anti-sense: NO
reduction and/or eradication of the H. pylori infection (therapeutic immunization effect) (H. pylori (strain AH244)): did not differ from control
